“Also recorded” adds a separate entry of the source.

One series deals with PI3K (p85). As to the kind of experiment: Co-immunoprecipitation of the regulatory subunit of PI3K (p85) with αPDGFR mutants in F cells. The format is cell-based, mouse. The following applies: 50 ng/ml PDGF-BB, 5 minutes. The method, then: (§1) The ability of the αPDGFR mutants to undergo ligand dependent tyrosine phosphorylation and to associate with signaling enzymes was then tested. F cells expressing various αPDGFR mutants were grown to subconfluence and serum starved overnight. Cells were either left resting (−) or stimulated with 50 ng/ml PDGF-BB (+) for 5 minutes, and lysed. The αPDGFR was immunoprecipitated with αPDGFR antibody, as described above, and the resulting immunoprecipitates were resolved by 7.5% SDS-PAGE and transferred onto Immobilon. The segment of the blot containing the αPDGFR was first blotted with anti-phosphotyrosine antibodies, then stripped and reprobed with an anti-αPDGFR antibody. Portions of the membrane that contained the proteins of the appropriate molecular mass were immunoblotted for PLCγ, the regulatory subunit of PI3K (p85), or SHP-2. Crude rabbit anti-p85 antibody is from Dr. A. Toker (Beth Israel Hospital/Harvard Medical School, Boston, Mass.). The monoclonal antibodies against PLCγ and SHP-2 were purchased from Upstate Biotechnology Inc.

Another series has as its system PI3K. As to the kind of experiment: In vitro PI3K activity assay of αPDGFR immunoprecipitates. The format is biochemical, mouse. The following applies: immunoprecipitates of F cells ± 50 ng/ml PDGF-BB. On the procedure:
To measure the PI3K activity that coprecipitated with the PDGFRs, the receptor immunoprecipitates were subjected to an in vitro PI3K kinase assay. Aliquots of the immunoprecipitates used in FIG. 10B were subjected to a PI3K activity assay. This assay detects PI3K that has co-precipitated with the αPDGFR. The PI3K assay was performed as previously described. Kazlauskas, A. et al. (1990) Embo. J. 9:3279. Briefly, immunoprecipitated αPDGFR from approximately 5×10^5 cells were incubated with phosphatidyl inositol in the presence of [^32P]-γATP. The reactions were terminated and the phospholipids were extracted and purified by chromatography. The radioactive product of the reaction (phosphoinositide 3 phosphate) was detected by autoradiography.

Another series has as its system F cells. In words: Collagen gel contraction assay of F cells expressing αPDGFR mutants. The format is cell-based, mouse. Conditions: PDGF-BB (50 ng/ml), 48 hours. On the procedure: The contraction assay was based on a previously described reference, Skuta, G. et al. (1999) J. Biol. Chem. 274:30163, with the following modifications. Fα cells were suspended in 1.5 mg/ml of neutralized collagen I (Cohesion vitrogen 100, Palo Alto, Calif.) at a density of 10^6 cells/ml, and were transferred into the 24-well plate (Falcon, Franklyn Lakes, N.J.) that had been preincubated with phosphate-buffer saline (PBS) with 5 mg/ml of bovine serum albumin (BSA) overnight. The gel was solidified by incubating at 37° C. for 90 minutes, and then the well was flooded with DMEM+5 mg/ml of BSA supplemented with an amount of vitreous such that the final concentration of vitreous in the culture medium was 1, 5 or 20%. The gels were incubated at 37° C. with 5% CO2. The initial gel diameter was 15 mm. The media was replaced every 24 hours and the gel diameter was measured after 48 hours. The extent of contraction was calculated by subtracting the diameter of the well at 48 hours from the initial diameter (15 mm). Each experimental condition was assayed in triplicate, and at least three independent experiments were performed. Unpaired t-test was performed to detect statistic difference in contraction assay.
To determine the signaling pathways that drive contraction, cells expressing the αPDGFR mutants were subjected to the collagen gel contraction assay described above. Accordingly, F cells expressing the indicated αPDGFRs were subjected to the collagen gel assay in the presence of buffer, PDGF-BB (50 ng/ml), TGFβ1 (1 ng/ml), or FBS (10%). The data presented are the mean±standard deviation measured at the 48 hours time point. Each experimental condition was assayed in triplicate, and at least 3 independent experiments were performed.

Series [1] deals with αPDGFR. As to the kind of experiment: Ligand-dependent tyrosine phosphorylation of αPDGFR mutants in F cells. The format is cell-based, human. Conditions: 50 ng/ml PDGF-BB, 5 minutes. On the procedure: as §1
A further series has as its system SHP-2. In words: Co-immunoprecipitation of SHP-2 with αPDGFR mutants in F cells. The format is cell-based, mouse. The following applies: 50 ng/ml PDGF-BB, 5 minutes. On the procedure:
as §1

The next series deals with PLCγ. In words: Co-immunoprecipitation of PLCγ with αPDGFR mutants in F cells. The format is cell-based, mouse. Conditions: 50 ng/ml PDGF-BB, 5 minutes. On the procedure:
as §1

For another series, the system named is rabbit eyes. As to the kind of experiment: Rabbit PVR model: F cells expressing αPDGFR mutants injected into the vitreous. The format is in vivo. Conditions: for potential to induce PVR (PVR score): up to 28 days after the surgery. On the procedure:
PVR was induced in the rabbit eyes as previously described (Andrews, A. et al. (1999) Invest. Ophthalmol. Vis. Sci. 40:2683 and Nakagawa, M. et al. (1995) Invest. Ophthalmol. Vis. Sci. 36:2388). Briefly, gas vitrectomy was performed by injecting 0.4 ml of expanding perfluoropropane gas (C3F8) into the vitreous cavity 4 mm posterior to the corneal limbus under anesthetical condition. Three days later, the rabbits were anesthetized and the pupils were dilated. 0.1 ml DMEM containing 1×10^5 of RCFs expressing empty vector or αPDGFR mutant were injected into the vitreous cavity together with 0.1 ml of PRP using 30 G needle. Ten rabbits underwent surgery for each cell population expressing the empty vector or the truncated, E587K, T665M, D818N, or V859M αPDGFR mutants. One rabbit in the D818N group died just after the surgery, therefore the total number is 9 for this group. The retinal status was evaluated with an indirect ophthalmoscope fitted with a +30 D fundus lens at 1, 4, 7, 14, 21, and 28 days after the surgery. The PVR was graded from 0 through 5 according to the Fastenberg score. Fastenberg, D. M. et al. (1982) Am. J. Ophthalmol. 93:565. The grading is as follows: 0; no abnormality, 1; vitreous strand, 2; traction of the retina, 3; partial retinal detachment (less than 2 quadrant), 4; extended (more than 2 quadrant) but not total retinal detachment, 5; total retinal detachment. All surgeries were performed under aseptic conditions and pursuant to the regulation of the ARVO Statement for the Use of Animals in Ophthalmic and Vision Research. Only the left eye of each rabbit was used for the experiments.
An important component of PVR is the traction force that is generated when cells of the epiretinal membrane contract. To test if the signaling enzymes that are required for contraction in the in vitro assays also participate in PVR, the cells expressing the various αPDGFR mutants, described in the previous Examples, were assayed in a rabbit PVR model, described above. In this model, rabbits first undergo gas vitrectomy, and then cells are coinjected with […]. The formation of an epiretinal membrane and retinal detachment is observed in living animals over 28 days.
Briefly, PVR was induced by introducing F cells expressing the indicated αPDGFR into the vitreous of the rabbit eyes. The PVR score was evaluated up to 28 days after the surgery according to the classification described above. The mean value and standard error of the scores in a group were indicated. Each group contained 9 or 10 rabbits; the response to parental F cells was previously reported (Andrews et al., supra), and was included here for comparison purposes.

Series [2] has as its system αPDGFR. The following applies: cited from earlier work.
Another series concerns GST-PLCγ. As to the kind of experiment: In vitro kinase assay of immunoprecipitated mutant αPDGFRs with exogenous substrate. The format is biochemical. Conditions: 292 immunoprecipitates, [32P]-γ ATP, 30° C., 5 min. On the procedure:
Mutant αPDGFRs were selectively immunoprecipitated with the 292 antibody, and samples representing 2×10^5 cells from 292 antibodies were subjected to an in vitro kinase assay. Immunoprecipitates were preincubated with 2 μg of GST protein for 10 min at 0° C., then 2 μg of Glutathione S-transferase fusion phospholipase C-gamma (GST-PLCγ, an exogenous substrate, 10 μCi of γ-[^32P] ATP (DuPont NEN Research Products, Boston, Mass.), and universal kinase buffer (UKB; 20 mM Pipes, pH 7.0, 10 mM MnCl2, 20 μg/ml aprotinin) were added. The samples were incubated at 30° C. for 5 min. The proteins were separated by 7.5% sodium dodecyl sulfate-polyacrylamide gel electrophoresis (SDS-PAGE), the gel was dried, and the radiolabeled protein was detected by autoradiography.

The subject of the next series is Src family kinases. The following applies: cited from earlier work.

With “F31/42: αPDGFR mutant, Tyr to Phe substitution at 731 and 742”, in the series with PI3K (p85), the “recruitment of PI3K / p85 (Properties)” value is “failed to efficiently associate; also recorded: Fails to recruit PI3K”. The “PI3K activity coprecipitating with the receptor” value with PI3K is “did not detectably coprecipitate”. Also, in the series with F cells, the PDGF-dependent contraction result is given as “did not respond”.

In the case of “R627: αPDGFR mutant, Lys to Arg substitution at 627, kinase inactive”, the “PDGF-dependent tyrosine phosphorylation of the receptor” value in the series on αPDGFR [1] is reported as “not phosphorylated in response to PDGF”. For the same molecule, the “recruitment of SHP-2 (Properties)” value in the series with SHP-2 is listed as “failed to recruit any of these signaling enzymes”. The “recruitment of PI3K / p85 (Properties)” value in the series on PI3K (p85) was “failed to recruit any of these signaling enzymes”. Also, in the series with PLCγ, the “recruitment or activation of PLCγ (Properties)” value is recorded as “failed to recruit any of these signaling enzymes”. Also, the PDGF-dependent contraction entry with F cells was “no contraction”. For the same molecule, in the series with rabbit eyes, the “potential to induce PVR (PVR score)” value is on record as “dramatically less able to cause the disease”. For the same molecule, in the series on αPDGFR [2], the “kinase activity of the receptor (Properties)” value was “Kinase inactive”.

In the case of “WT αPDGFR: wild type human αPDGFR, SEQ ID NO: 2, expressed in F cells (Fα cells)”, the “kinase activity towards exogenous substrate GST-PLCγ” value in the series on GST-PLCγ is on record as “phosphorylated the exogenous substrate”. Also, in the series on SHP-2, the “recruitment of SHP-2 (Properties)” value is “coprecipitated”. Also, the “recruitment of PI3K / p85 (Properties)” value in the series on PI3K (p85) is “coprecipitated”. In addition, the “recruitment or activation of PLCγ (Properties)” value in the series on PLCγ is on record as “coprecipitated”. Also, in the series with PI3K, the “PI3K activity coprecipitating with the receptor” value is reported as “coprecipitated”. Moreover, in the series with F cells, the PDGF-dependent contraction entry is “contracted”. In addition, the “time until PVR after injection of cells” value in the series with rabbit eyes (rabbit, in vivo) is on record as 2-3 weeks.

B1: F7: αPDGFR mutant, Tyr to Phe substitution at 572, 574, 720, 731, 742, 988, and 1018 (protein, UniProt P16234 24-1089, looked up, variant Y572F Y574F Y720F Y731F Y742F Y988F Y1018F)
Platelet-derived growth …: QLSLPSILPNENEKVVQLNSSFSLRCFGESEVSWQYPMSEEESSDVEIRNEENNSGLFVTVLEVSSASAAHTGLYTCYYNHTQTEENELEGRHIYIYVPDPDVAFVPLGMTDYLVIVEDDDSAIIPCRTTDPETPVTLHNSEGVVPASYDSRQGFNGTFTVGPYICEATVKGKKFQTIPFNVYALKATSELDLEMEALKTVYKSGETIVVTCAVFNNEVVDLQWTYPGEVKGKGITMLEEIKVPSIKLVYTLTVPEATVKDSGDYECAARQATREVKEMKKVTISVHEKGFIEIKPTFSQLEAVNLHEVKHFVVEVRAYPPPRISWLKNNLTLIENLTEITTDVEKIQEIRYRSKLKLIRAKEEDSGHYTIVAQNEDAVKSYTFELLTQVPSSILDLVDDHHGSTGGQTVRCTAEGTPLPDIEWMICKDIKKCNNETSWTILANNVSNIITEIHSRDRSTVEGRVTFAKVEETIAVRCLAKNLLGAENRELKLVAPTLRSELTVAAAVLVLLVIVIISLIVLVVIWKQKPRYEIRWRVIESISPDGHEFIFVDPMQLPYDSRWEFPRDGLVLGRVLGSGAFGKVVEGTAYGLSRSQPVMKVAVKMLKPTARSSEKQALMSELKIMTHLGPHLNIVNLLGACTKSGPIYIITEYCFYGDLVNYLHKNRDSFLSHHPEKPKKELDIFGLNPADESTRSFVILSFENNGDFMDMKQADTTQFVPMLERKEVSKYSDIQRSLYDRPASYKKKSMLDSEVKNLLSDDNSEGLTLLDLLSFTYQVARGMEFLASKNCVHRDLAARNVLLAQGKIVKICDFGLARDIMHDSNYVSKGSTFLPVKWMAPESIFDNLYTTLSDVWSYGILLWEIFSLGGTPYPGMMVDSTFYNKIKSGYRMAKPDHATSEVYEIMVKCWNSEPEKRPSFYHLSEIVENLLPGQYKKSYEKIHLDFLKSDHPAVARMRVDSDNAFIGVTYKNEEDKLKDWEGGLDEQRLSADSGFIIPLPDIDPVPEEEDLGKRNRHSSQTSEESAIETGSSSSTFIKREDETIEDIDMMDDIGIDSSDLVEDSFL
Turning to B1, the “PDGF-dependent tyrosine phosphorylation of the receptor” value in the series with αPDGFR [1] is “undergoes modest tyrosine phosphorylation”. Also, the “recruitment of SHP-2 (Properties)” value in the series with SHP-2 was “failed to recruit any of these signaling enzymes; also recorded: Fails to recruit”. Moreover, the “recruitment of PI3K / p85 (Properties)” value in the series on PI3K (p85) was “failed to recruit any of these signaling enzymes; also recorded: Fails to recruit”. In the series with PLCγ, the “recruitment or activation of PLCγ (Properties)” value is reported as “failed to recruit any of these signaling enzymes; also recorded: Fails to recruit”. The PDGF-dependent contraction result in the series with F cells is on record as “no contraction”. Moreover, in the series with rabbit eyes, the “potential to induce PVR (PVR score)” value was “dramatically less able to cause the disease”. Besides, the “recruitment or activation of Src family kinases (Properties)” value in the series with Src family kinases is “Fails to recruit”. Besides, the “kinase activity of the receptor (Properties)” value in the series with αPDGFR [2] is listed as “kinase active”.

The values above are taken from patent publication US6667173B2, “Nucleic acids encoding platelet derived growth factor-alpha receptors” (The Schepens Eye Research Institute, priority 2000, dated 2003).
